{"source": "the DeepSol protein solubility set"}
{"assay": "soluble on expression in E. coli; label from the status in PepcDB or PDB records"}
{"sequence": "GPGSMSIHQTKVCSVNEPLSNPDDSALEYCVEAQSPVNRTTSTWEFRSKLFPHAFAAVLDTDLSESETTQRELAEWTRKRCRNYERQGDILRSQLGVLVSSGAANGKRSDADDGDDEAFLVGLGEWSLQESSSQYLNSAKKKKCHRQLRCKDSYESALLLERQWSERHAVSLKHSCMKGAHPTPAAQNFELGCAKDLCRDASSVEIHSITPAASVVAAEKTRSVTACEPPTEQERKKNRGVASEHEGTQNFAEHLVVQYFIPDGSEAESGKSSNDTRGGACGRGLYSMPLSVFRYHYPQLLLDFLLQHSVVMESS", "soluble on expression in E. coli": "not soluble"}
{"sequence": "GPGSMSLLNTTLQTLVVRLRDMSGNVTQQKLHNRVFDAYEAKSLVFEAISPEQQAVMQQFGTIPSQHPAGQPVLLDGWADLLTVHREDNLYQLLPRRAKNNASYSTMRAICCSAGSPFTMDHRVDPIDYKFVFRAADMEVRNKFNATNQDKIPPTIWFDGILSAPNDSGLVSCHNSLSPAHINNLAGTYQFLKEWSNEPPEGDRHRQLKEMYSNLLSKRTHLFIGSSSVPGREILNYARSKNVFVYAKRGMHYVFHA", "soluble on expression in E. coli": "not soluble"}
{"sequence": "GPGSMSQEGGKSEPDANEKEQRNQKLRLGLEAMFCAQEIPSEKRTDIESDGEEVPPSITRDEDRYRQVAEAILRIDTKSKIIEINNIRLFSVAEIELDKLTECTSLSLRKNLLHDLIPFPEDLADRLDELDLFDNKIRKLNDFFETVTVPGDPPTTKTLPNAYKCLTKLDLSYNQIREIGGLDSIGGTLRELYLVENKIKEVKNLDSLVNLELLELGGNRLRAIGSGLEKLTKLKQLWLGKNKISSIGTALHKLVSLEILSLQANRITSVDAENFLGAKANPNLREVYLSENGLTSVGNVRHLSTIKIIDFSFNSICSIDAEEINPQTMPKLEEFWLTDGNIADWEEVGKLSGFTSTLKTVYLERNPIEEDKRYRDKVYMYLPFLVQIDSWPIVNKGNLEADRKRKA", "soluble on expression in E. coli": "not soluble"}
{"sequence": "GPGSMTSTVTAVNQTQSLAAIRNFVRASVSCITYARGLCSDNAYEQRPFLGLPLRQLIPSTTESITISEWIEKGAFDALNRNYLKEMSLCVYDAACHELLESYCFGFNYTGDGERAQMTLNASQTIADGSKTTAVSQSSGGAVGIPAYRKRRCTKQEVQHLLTSILERLMDVVESLPPLLSERVLTMRLTYYDAVTPASYEPPCFAPASEHMARLYQAEVKHHVNIGSMDTSHHLFSVAIRHPLLQQIHRQMTGRTTSAVATKT", "soluble on expression in E. coli": "not soluble"}
{"sequence": "GPGSMTSVETRIQALVQRYTLMENNINKLRKALASLGEGQQNANTTPRNEATAVAHHRDPCDLKELQPCPQDTPEVAALRRWCIEHSLTTAVFRWVPSDYYQHTLQWRRDELAAPSVHHLCKSILMENTHCTNKDCGVRENSRYYLIVYPYTEKFDAEMVMRHVKGLNEGLGKKKFNFRLAAPDVALQLTGFGHGAVAPFGTPTEIPVILSDKILQLTPAVFWMGGGHVDCKVRVDVEQFMEVIKPIVASVTTPLSAEELGQLVD", "soluble on expression in E. coli": "soluble"}
{"sequence": "GPGSMWFGTKNQRKAPQIPFPKRNKTKQRRASRRVRARVRTGNKPEHAIGGTGCASSRMRRGLDGSNTAAPGCDVSSHLSTPVHRPLRCAQPLFVFKSTSLRASLRNTCHHARHRARPYAHGSVSPPLSPSLAYFPQRSKGSRTPAYRWDCTVTRRSWSAHGSASTLVCARVRRSAPFTIGRANDRQRSAAEGDDARTPAHLTTLSTRSQQPKQAKQNTGSSMNSAGTGAPAKAAGVSASSLSMPKHKLVLLGDQSVGKTSIITRFMYDTFDQQYQPTIGIDFFSKTVHLDDDRDVRLHLWDTAGQERFHSLIPSYIRNSAATVVVYDITSRPTFFSAFKWIDEVRSESGADVVIMLVGNKVDQASERREVSAEEAMKKASECSVLFMEVSAKHGTNIKHMFRQVAAALPAPASTGGGAGVTGATSSSAGGVGAAGASGSGASAPGISAGQFGGIVRSPFLITPSAMQAASNGTGGAGEADGANPNAQGGRGGACC", "soluble on expression in E. coli": "not soluble"}
{"sequence": "GPGSMWVCGEAVLMRALNLLHARVRRCMRFSCRIPPQYCECPCRRMRVCPLRRDVSLIVLLFGLTPTTFSFSATSHDASRTKATRTHTHTHTPLFPARPMGSPLIAVIGPNPAFQKTLALDELRVDEVNRAATVHSYTGGKGTNFCRASACCKESPHFCRTTLHTFVGGKTGERVIDLLHQEGIAVYPVTVPAETRTCITCLDTQNSTMTELIEPSAAVPDDAAKDMDRALLKALEHAGGMAIMGSLPDGSSPDLYTRWTEMAAAAQKPVLIDAVKGIEASLKVPGVHSILKVNMRELNKLTGQSTPESAFEYAMQMWTVRVLAVTDGPRSAYIQERGQPLQVVHIPKVDGVVSPLGAGDTADAIFLAKYIHGTTPVEAFRLALAAASANCLQKEAGVFAQHEMRRIADGITIGSSRPHSSSNTRA", "soluble on expression in E. coli": "not soluble"}
{"sequence": "GPHSLRYFVTAVSRPGLGEPRFIAVGYVDDTQFVRFDSDADNPRFEPRAPWMEQEGPEYWEEQTQRAKSDEQWFRVSLRTAQRYYNQSKGGSHTFQRMFGCDVGSDWRLLRGYQQFAYDGRDYIALNEDLKTWTAADTAALITRRKWEQAGDAEYYRAYLEGECVEWLRRYLELGNETLLRTDSPKAHVTYHPRSQVDVTLRCWALGFYPADITLTWQLNGEDLTQDMELVETRPAGDGTFQKWAAVVVPLGKEQNYTCHVHHKGLPEPLTLRWKLPPSTVSN", "soluble on expression in E. coli": "soluble"}
{"sequence": "GPHSLRYFVTAVSRPGLGEPRFISVGYVDNTEFVRFDSDAENPRYEPRARWMEQEGPEYWERETQKAKGNEQSFRVDLRTLLGYYNQSKGGSHTIQVISGCEVGSDGRLLRGYQQYAYDGCDYIALNEDLKTWTAADMAALITKHKWEQAGEAERLRAYLEGTCVEWLRRYLKNGNATLLRTDSPKAHVTHHSRPEDKVTLRCWALGFYPADITLTWQLNGEELIQDMELVETRPAGDGTFQKWASVVVPLGKEQYYTCHVYHQGLPEPLTLRWEPPPST", "soluble on expression in E. coli": "soluble"}
{"sequence": "GPLENWFTEFDIKPLASASIAQVHTARLKDTNQEVVLKVIRPDIRPVIDSDLKLMHRMARIVAGAMPEARRLKPVEVVREYEKTLLDELDLRREAANAIQLRRNFEGSEELYVPEVFPDFS", "soluble on expression in E. coli": "not soluble"}
{"sequence": "GPLGSAQTLQMEIPNFGNSILECLNEQRLQGLYCDVSVVVKGHAFKAHRAVLAASSSYFRDLFNNSRSAVVELPAAVQPQSFQQILSFCYTGRLSMNVGDQDLLMYTAGFLQIQEIMEKGTEFFLKVSS", "soluble on expression in E. coli": "soluble"}
{"sequence": "GPLGSGGLFFNALKNCKENFTVLQTIRQQQSTLNGSWVALLQTRNTLNRAGIRYMMDQNNIGSGSTVAELMESASISLKQAEKNWADYEALPRDPRQSTAAAAEIKRNYDIYHNALAELIQLLGAGKINEFFDQPTQGYQDGFEKQYVAYMEQNDRLHDIAVSDNNASYSHHHHHH", "soluble on expression in E. coli": "soluble"}
{"sequence": "GPLGSPEFGYWITCCPTCDVDINTWVPFYSTELNKPAMIYCSHGDGHWVHAQCMDLEERTLIHLSEGSNKYYCNEHVQIARA", "soluble on expression in E. coli": "soluble"}
{"sequence": "GPLGSSWLFLEVIAGPAIGLQHAVNSTSSSKLPVKLGRVSPSDLALKDSEVSGKHAQITWNSTKFKWELVDMGSLNGTLVNSHSISHPDLGSRKWGNPVELASDDIITLGTTTKVYVRISSQNEFQIPFKIGVASDPMA", "soluble on expression in E. coli": "soluble"}
{"sequence": "GPLHMVKVALAGCPNVGKTSLFNALTGTKQYVANWPGVTVEKKEGVFTYKGYTINLIDLPGTYSLGYSSIDEKIARDYLLKGDADLVILVADSVNPEQSLYLLLEILEMEKKVILAMTAIDEAKKTGMKIDRYELQKHLGIPVVFTSSVTGEGLEELKEKIVEYAQKNTILHRMILDYGEKVESEIKKVENFLRDKKLRINPRYFALKYLSGDPEFYSEGVKLGLPELSEEERIGYRLLIAKRKREYVENVVKEAFAD", "soluble on expression in E. coli": "soluble"}
{"sequence": "GPRRTRTTFTSSQIAELEQHFLQGRYLTAPRLADLSAKLALGTAQVKIWFKNRRRRHKIQSDQHKDQS", "soluble on expression in E. coli": "soluble"}
{"sequence": "GPSASLLVQNGTLNVGDAIVVGNTYGRIRAMVNDLGQRIKTAGPSTPVEITGINDVPQAGDRFV", "soluble on expression in E. coli": "soluble"}
{"sequence": "GPVNPAENFRVLVKQKKASFEEASNQLINHIEQFLDTNETPYFMKSIDCIRAFREEAIKFSEEQRFNNFLKALQEKVEIKQLNHFWEIVVQDGITLITKEEASGSSVTAEEAKKFLAPKD", "soluble on expression in E. coli": "soluble"}
